Assay: soluble on expression in E. coli; label from the status in PepcDB or PDB records

**Q.** Which “soluble on expression in E. coli” value does the source give for “MSLKARKSWISDKGPLSVSTQCELAGVTRSGYYGQSKSLMPNTEDLELMKLIDEEYTRHPFYGSRRMKRVLLAQGRKVNRKRVQRLMRNLGLAGIAPGPNTSKPHPQHKIYPYLLRGLVITRPNHVWSTDVTYCRLPGGFMYLTAVIDWYSRKVLAWRLSNSLDSSFCVDCLEEAIRKYGMPEIFNTDQGTQYTSEAFTGVLKSHDIRISMDGRGRALDNIFVERLWRNVKQEDLYLKGYETAVEMMRGLTEYFRFYNIERPHQSLGYKTPDEVYESATGGGARIVDKFFQKSVSEGSSEATGPQQEAAEGHHHHHH” here?
**A.** soluble

**Q.** With “MGSDKIHHHHHHMIASPEPEYLTPEEYLQLEEASPIKHEYINGYAYAMAGATDAHVTVAGNLFVLLRNHVRGSGCRVYIADMKARIESLNRYYYPDVMVTCDQRDQETPNHKRFPCLIVEVLSNSTEAFDRGDKFVDYQEIETLKEYVLINTKRQRVECFKRGDHGLWILQSYTEQDKIFRLNSVDFEGAIAELYEDVIFEQTTL” as the sequence, how does the “soluble on expression in E. coli” value read?
**A.** not soluble

**Q.** Which “soluble on expression in E. coli” value does the source give for “MSLAIVAKRTIMSLFSDVDDVYSHQVRIVLAEKGVNVEILAVKQDEPGADLLSINPYGTVPTLIDRELVLYEARIIMEYLDERFPHPPLLPVYPVARAEARKMMHRIEQDWYYLMNAILREESVEQARANLLESLTSLDPVFADKPYFLSDEFSLLDCALAPLLWRLPKLGLEIAPNFKGIISYMQRVFKRDSFQTSLTDAERQIRAAEGHHHHHH” here?
**A.** soluble

**Q.** With “MSLNSISHIPKAEIHVHLEATITPSLCRKFAKRNKVILSDDFFGSEYAYQWEDFYDFLKKYDIVTSVIHTPEDYYELTYAYLKECASHNVLYVEAMVSSTHAKAKGMTYQSFLDSIQEASLNAERDFGIVSRYLMNGIRHLGPESVQGTAEEVLKNPHPAIVGFGLAGDELHFPPHLFSKTFDMLKEENFPITVHAGEWDGPENIRKAINLLHPTRLGHGVRSIEDLDLVKEIIEKDIVLETCPTSNIATKIYENYENHPVKKLHELGAKVTVNSDDPPFFNATIQGEYEAMSKIGFADDVLISMTRNAIEYSFLDNQKKKEVLTKLNEGHHHHHH” as the sequence, how does the “soluble on expression in E. coli” value read?
**A.** soluble

**Q.** With “MNNYSGDIVFMSGGNEEDQLAQCQAYVQRHNIQQLVKEAIVVLCIHKPDNPVLFLKDHFEKLNEQRAQEGGNPDAADDDDIIVEPPKRSGGRRTGISAEPIKEDDTEYKKVVIPKDDATRRSLESAMRKNLLFAHLEEDEQKTMYDAMFPVEKSAGETIIEQGEEGDNFYVIDKGTVDVYVNHEYVLTINEGGSFGELALIYGTPRAATVIAKTDVKLWAIDRLTYRRILMGSVTKKRKMYDEFLSKVQILADLDQWERANVADALERCDFEPGTHVVEQGQPGDEFFIILEGEANVLQKRSDDAPFDVVGHLGMSDYFGEIALLLDRPRAATVVAKTHLKCIKLDRNRFERVMGPVREILKRDVSNYNSYVKLMT” as the sequence, how does the “soluble on expression in E. coli” value read?
**A.** soluble

**Q.** For “MGSDKIHHHHHHMRNLGNTNMKIKRVGFGGIPIQRITQDDTNLVINELEKQGINFIDSARGYTISEEAIGIAIEGKRDKFFLATKSMSRDYDSMKRDVEISLNNFKTDFIDLYQFHNVKEEEYDNLFKDKMAYSALLEAKEQGKIKHIGITSHNLNTIEKAIEDGKFDTIQFPYNIVEGQADEVFKKAHEKGIGIIVMKPLAGGALDNATLAIKYILSKDYIDVVIPGMESVEQVRQNVAVLENLVLDEKDNKEIEEIRNSLGKKFCRRCEYCMPCAVGINIPLSFLCEGYYTRYGLKEWAKEKYEVMDVKPTECIDCGLCESRCPYELPIREMLKTVVEKLG”, which “soluble on expression in E. coli” value is on record?
**A.** not soluble

**Q.** Which “soluble on expression in E. coli” value does the source give for “MSLGQTTLACSFRSLTNPYYTAFNKGAQSFAKSVGLPYVPLTTEGSSEKGIADIRALLQKTGGNLVLNVDPNDSADARVIVEACSKAGAYVTTIWNKPKDLHPWDYNPNYVAHLSYDGVAYGEETATQLFKSMGGKGGVVALGGIFSNVPAIERKAGLDAALKKFPGIQLLDFQVADWNSQKAFPIMQAWMTRFNSKIKGVWAANDDMALGAIEALRAEGLAGQIPVTGMDGTQPGLVAIKSGELVASVDWDPFWLGGIGLSMGLQAKEKKIDLATLPKDRRESFCTATFVTKTNVQDVIARAASPKAEWNNLYARVAGPVVYREGHHHHHH” here?
**A.** soluble

**Q.** With “MKIAYLGPKGSFSHHVVQTAFPHEELQAFANITDVIKAYEQGLVNYSVVPVENSIEGSVHETLDYLFHQAHIQAVAEIVQPIHQQLMVVPGHTKIEKIFSHPQALAQGKKFIDEQYPEAQIEVTASTAYAARFISEHPDQPFAAVAPRSSAEEYGLELIAEDIQEMEANFTRFWVLGAEKPSIPLQAQTEKMSLALTLPDNLPGALYKALSTFAWRGIDLTKIESCPLKTALGEYFFIIDVDYTDKDLVHFAQKELEAIGIQYKILGAYPIYPISDHGKERR” as the sequence, how does the “soluble on expression in E. coli” value read?
**A.** soluble

**Q.** With “MVVKFTKSEALHKEALEHIVGGVNSPSRSFKAVGGGAPIAMERGKGAYFWDVDGNKYIDYLAAYGPIITGHAHPHITKAITTAAENGVLYGTPTALEVKFAKMLKEAMPALDKVRFVNSGTEAVMTTIRVARAYTGRTKIMKFAGCYHGHSDLVLVAAGSGPSTLGTPDSAGVPQSIAQEVITVPFNNVETLKEALDKWGHEVAAILVEPIVGNFGIVEPKPGFLEKVNELVHEAGALVIYDEVITAFRFMYGGAQDLLGVTPDLTALGKVIGGGLPIGAYGGKKEIMEQVAPLGPAYQAGTMAGNPASMASGIACLEVLQQEGLYEKLDELGAMLEKGILEQAAKHNIDITLNRLKGALTVYFTTNTIEDYDAAQDTDGEMFGKFFKLMLQEGVNLAPSKYEAWFLTTEHTKEDIEYTIEAVGRAFAALADNK” as the sequence, how does the “soluble on expression in E. coli” value read?
**A.** not soluble

**Q.** For “MRREERNMDKLLISFLLSLFMVYFPPSDVVLPSQFEASTDSYVPMSSYPQETQSAKTPSPGSMHPAELIKEYSPLAQSVRQLSVKPLDEPLINRLEKALAVPVKYQSNYLRILEHHHHHH”, which “soluble on expression in E. coli” value is on record?
**A.** not soluble

**Q.** For “MNLDDIINSMTPEVYQRLSTAVELGKWPDGVALTEEQKENCLQLVMLWQARHNTEAQHMTIDTNGQMVMKSKQQLKEDFGISAKPIAMFK”, which “soluble on expression in E. coli” value is on record?
**A.** not soluble

**Q.** For “MNNSSFFGNRLKEERKKLKMTQAEIAEKCGVSGRMWGDYERGISQPKAELFFQFEKVGIDVQYVMHGRRGETAVMPSETLNAEEQELLVLFREAAAADREMILMVARRAEKKAQTALGKVSNG”, which “soluble on expression in E. coli” value is on record?
**A.** not soluble

**Q.** Which “soluble on expression in E. coli” value does the source give for “MGHHHHHHSHMRPRRPHQIADLFRPKDQIAYSDTSPFLILSEASLADLNSRLEKKVKATNFRPNIVISGCDVYAEDSWDELLIGDVELKRVMACSRCILTTVDPDTGVMSRKEPLETLKSYRQCDPSERKLYGKSPLFGQYFVLENPGTIKVGDPVYLLGQ” here?
**A.** not soluble

**Q.** With “MDEQVIKKVVEDVLKKVGIEQKEENKANRGEPVITNPGLTEFVGTALGDTIGLVIANVDASLHEKMGIDPKYRSIGIIGGRTGAGPQIMAADEAVKATNTEVVAIELPRDTKGGAGHGNLIIFGAEEVSDARRAVEVALKELRRTFGDVYVNEAGHLEFQYTARASYALQKAFGAPLGKAFGLIVGAPAAIGVLCCDTAVKAAEVEVIGYASPAKGTSMTNEAILFISGDSGAVRQAIIAAREVGLKLLSTLGEAPKSLSGEPYI” as the sequence, how does the “soluble on expression in E. coli” value read?
**A.** not soluble

**Q.** With “MDKEKVLDKIKKCLALGRSVNEHEAAQALRQAQALMEKYKVNAEDIALSKVSEQKADRKMAFKLAGWQWGVANMIADIFGCKSYQRGKTMMFYGIGNRAETSAYAFDVVYRQISADRRKFLKTCRAGKPSHRTYLADRFCGGWIASAWETVKKFEMSDEEKAIMDGYKKKEYPDMAEARTRDAKSSILQGSKMEYEALTRGMESGKQVKLHYAVNGTGFVKQIGGQT” as the sequence, how does the “soluble on expression in E. coli” value read?
**A.** not soluble

**Q.** Which “soluble on expression in E. coli” value does the source give for “MGSDKIHHHHHHMIVEKVLIVDPIDGEFTGDVEIEEGKIVKVEKRECIPRGVLMPGFVDPHIHGVVGADTMNCDFSEMEEFLYSQGVTTFLATTVSTSLEKMKEILRKARDYILENPSTSLLGVHLEGPYISKEKKGAHSEKHIRPPSERELSEIDSPAKMLTFAPEIESSELLLRLVKRDIVLSAGHSIATFEEFMKFYKEGVKRITHFPNGLKPLHHREIGITGAGLLLDDVKLELICDGVHLSREMVKLVYKVKKANGIVLVTDSISAAGLKDGTTTLGDLVVKVKDGVPRLEDGTLAGSTLFFSQAVKNFRKFTGCSITELAKVSSYNSCVELGLDDRGRIAEGTRADLVLLDEDLNVVMTIKEGEVVFRSR” here?
**A.** soluble

**Q.** Which “soluble on expression in E. coli” value does the source give for “MEKVNEILSQLTLEEKVKLVVGVGLPGLFGNPHSRVAGAAGETHPVPRVGLPAFVLADGPAGLRINPTRENDENTYYTTAFPVEIMLASTWNRELLEEVGKAMGEEVREYGVDVLLAPAMNIHRNPLCGRNFEYYSEDPVLSGEMASSFVKGVQSQGVGACIKHFVANNQETNRMVVDTIVSERALREIYLRGFEIAVKKSKPWSVMSAYNKLNGKYCSQNEWLLKKVLREEWGFEGFVMSDWYAGDNPVEQLKAGNDLIMPGKAYQVNTERRDEIEEIMEALKEGKLSEEVLDECVRNILKVLVNAPSFKNYRYSNKPDLEKHAKVAYEAGAEGVVLLRNEEALPLSENSKIALFGTGQIETIKGGTGSGDTHPRYAISILEGIKERGLNFDEELAKTYEDYIKKMRETEEYKPRRDSWGTIIKPKLPENFLSEKEIHKLAKKNDVAVIVISRISGEGYDRKPVKGDFYLSDDETDLIKTVSREFHEQGKKVIVLLNIGSPVEVVSWRDLVDGILLVWQAGQETGRIVADVLTGRINPSGKLPTTFPRDYSDVPSWTFPGEPKDNPQKVVYEEDIYVGYRYYDTFGVEPAYEFGYGLSYTTFEYSDLNVSFDGETLRVQYRIENTGGRAGKEVSQVYIKAPKGKIDKPFQELKAFHKTRLLNPGESEEVVLEIPVRDLASFNGEEWVVEAGEYEVRVGASSRNIKLKGTFSVGEERRFKP” here?
**A.** soluble

**Q.** With “MIYIGFYPKFNISGFSIGINTGVRFDVSSKLHYETSSASENINNEVKPRTYIRGTFDYSVFFKDNMAINVGLYIGYDWGFAWSDTYANADVVKNESFGNLDLGIQVGYRFGPKF” as the sequence, how does the “soluble on expression in E. coli” value read?
**A.** not soluble

**Q.** Which “soluble on expression in E. coli” value does the source give for “HRIPAYTLTDQNGDAFKSTAYDSSFKVYDFVFTRCGSICPEMTTQMIRVQEAFKHDKDVVLISLTVDPEHDSSEVLQRYAKQYNAIPGKWYFLTGEKDTIYTLGQRQFFLTAKQNEEDLTDFLHSERIVLVDKNGWIRGYYTGTNEKDVDRLITELKVLQKIERDAKRK” here?
**A.** not soluble

**Q.** Which “soluble on expression in E. coli” value does the source give for “MEYQLREIDESEKEITQQRKKNSVTTKNFDNLSNSNSQITEMTNEQGVIPLREKDLTINVGDNRNLKVEEFMTNFISNVFENKNALFLYCKYVLLFYGKELLNENNVESLNFEIIKGGITNILVKVEDNIHQNKYLIRLYGPKTSEIINREREKLISNILCDKNISKKIYVFFPNGRIEEFKDGYALSREDIKNKDFQKEIAENLRILHDIQLDDTIYKKLQALQNIQGNRSSFLWSTLWKYFNTLKEERQKKYSFNPKAYILKLIDFDMLESIITEIQELCCKKNSPVVLCHCDLLSSNIIKTEGSSISFIDFEYSCPMERAYDIANHFNEYAGFNCEWDLTPNRSEEYHFIKHYLKTDDEQLINQLIDEIQPFYVCSHIVWGLWALLQGLHSVIDFDFINYGMTRLTAAFSVKFRSKLEKN” here?
**A.** not soluble

**Q.** With “RAKQQAAKSERRVRELTEATNDILWEFTADLSEVLVINSAYEDIWGRSVAKLRENPHDFLNGIHPEDRELMKDTMQSLMDGESADVECRVNATEEYQRWVWIQGEPITNDAGETVRVAGFARDIT” as the sequence, how does the “soluble on expression in E. coli” value read?
**A.** soluble
